The values below come from US20090246175A1.

Test [1] has as its target C3 convertases (C4b2a and C3bBb). In words: cell-based or functional assay.
The target in test [2] is classical and lectin pathway C3 convertase C4b2a (human) (UniProt P0C0L4). Briefly: cell-based or functional assay.
UniProt P0C0L4, sequence (P0C0L4 20-1744 limits assumed, chain 1 of 2): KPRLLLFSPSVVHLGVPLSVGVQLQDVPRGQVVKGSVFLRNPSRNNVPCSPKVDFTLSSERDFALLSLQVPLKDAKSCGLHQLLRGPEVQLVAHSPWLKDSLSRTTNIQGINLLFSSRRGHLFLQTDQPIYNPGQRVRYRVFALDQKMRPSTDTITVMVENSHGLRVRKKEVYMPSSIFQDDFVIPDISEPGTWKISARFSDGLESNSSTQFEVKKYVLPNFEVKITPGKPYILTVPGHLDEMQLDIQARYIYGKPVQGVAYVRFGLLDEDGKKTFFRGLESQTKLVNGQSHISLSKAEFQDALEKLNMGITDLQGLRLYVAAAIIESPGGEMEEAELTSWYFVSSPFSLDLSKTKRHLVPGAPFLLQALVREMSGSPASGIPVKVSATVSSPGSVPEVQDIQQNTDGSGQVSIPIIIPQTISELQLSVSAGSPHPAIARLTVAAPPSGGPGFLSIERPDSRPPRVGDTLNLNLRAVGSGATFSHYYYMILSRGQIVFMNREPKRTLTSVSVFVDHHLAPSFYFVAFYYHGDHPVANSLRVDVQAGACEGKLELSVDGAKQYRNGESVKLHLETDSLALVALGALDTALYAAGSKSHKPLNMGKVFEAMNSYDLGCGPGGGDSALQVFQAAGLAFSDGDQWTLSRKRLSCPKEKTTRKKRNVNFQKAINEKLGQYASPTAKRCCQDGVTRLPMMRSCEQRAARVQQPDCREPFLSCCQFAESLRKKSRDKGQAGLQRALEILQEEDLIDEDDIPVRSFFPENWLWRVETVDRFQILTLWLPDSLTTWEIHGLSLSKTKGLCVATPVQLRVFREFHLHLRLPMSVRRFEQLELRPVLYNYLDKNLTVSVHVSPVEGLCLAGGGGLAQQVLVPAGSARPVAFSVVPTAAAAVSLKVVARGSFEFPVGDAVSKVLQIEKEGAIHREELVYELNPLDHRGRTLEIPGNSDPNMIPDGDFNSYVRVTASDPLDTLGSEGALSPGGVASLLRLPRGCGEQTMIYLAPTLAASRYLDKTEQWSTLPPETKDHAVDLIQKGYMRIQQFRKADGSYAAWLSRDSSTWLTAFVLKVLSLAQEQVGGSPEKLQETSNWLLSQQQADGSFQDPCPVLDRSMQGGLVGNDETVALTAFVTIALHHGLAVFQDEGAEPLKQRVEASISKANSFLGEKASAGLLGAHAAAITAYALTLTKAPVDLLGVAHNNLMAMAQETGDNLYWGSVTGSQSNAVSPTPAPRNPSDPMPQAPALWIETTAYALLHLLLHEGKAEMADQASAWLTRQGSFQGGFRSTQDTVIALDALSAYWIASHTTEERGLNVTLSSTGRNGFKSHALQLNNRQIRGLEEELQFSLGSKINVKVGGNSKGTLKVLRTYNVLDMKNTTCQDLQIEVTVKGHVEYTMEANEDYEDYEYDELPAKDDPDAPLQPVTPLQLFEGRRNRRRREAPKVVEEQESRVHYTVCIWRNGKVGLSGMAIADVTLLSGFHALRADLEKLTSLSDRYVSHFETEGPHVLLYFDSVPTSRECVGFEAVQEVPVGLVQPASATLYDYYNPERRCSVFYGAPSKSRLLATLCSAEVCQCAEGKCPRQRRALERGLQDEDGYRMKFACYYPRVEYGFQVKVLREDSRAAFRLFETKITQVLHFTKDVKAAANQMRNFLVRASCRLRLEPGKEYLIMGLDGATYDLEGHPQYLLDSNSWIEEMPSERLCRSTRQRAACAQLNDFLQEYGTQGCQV
UniProt P0C0L4, sequence (P06681 244-752 limits assumed, chain 2 of 2, further chain): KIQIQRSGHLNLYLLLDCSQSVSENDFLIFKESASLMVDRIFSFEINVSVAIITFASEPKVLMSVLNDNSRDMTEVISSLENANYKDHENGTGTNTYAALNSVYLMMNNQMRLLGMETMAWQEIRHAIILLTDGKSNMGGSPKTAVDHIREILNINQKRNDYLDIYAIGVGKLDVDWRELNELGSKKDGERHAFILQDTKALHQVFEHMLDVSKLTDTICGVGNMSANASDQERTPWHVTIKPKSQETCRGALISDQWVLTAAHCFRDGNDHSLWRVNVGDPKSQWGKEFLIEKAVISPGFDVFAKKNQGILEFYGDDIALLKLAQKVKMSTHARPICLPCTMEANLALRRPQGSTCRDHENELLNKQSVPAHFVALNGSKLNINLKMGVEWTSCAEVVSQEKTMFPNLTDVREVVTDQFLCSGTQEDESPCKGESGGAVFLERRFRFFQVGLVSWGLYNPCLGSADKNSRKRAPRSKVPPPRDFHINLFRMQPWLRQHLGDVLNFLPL

For recombinant SCIN-B (rSCIN-B), in test [1], the IC50 of phagocytosis of S. aureus by human neutrophils in 10% human sera was determined as 0.8 µg/mL. “recombinant Staphylococcal Complement Inhibitor (rSCIN)” gave a C5b-9 and C3b deposition via the CP and LP (ELISA) (% inhibition at 10 µg/ml) in test [2] of 50. Besides, the IC50 of phagocytosis of S. aureus by human neutrophils in 10% human sera in test [1] came to 0.3 µg/mL. recombinant SCIN-C (rSCIN-C) displayed an IC50 of phagocytosis of S. aureus by human neutrophils in 10% human sera in test [1] of 0.12 µg/mL.
